The data set in a line: soluble on expression in E. coli; label from the status in PepcDB or PDB records.
As for “MHITLRQLEVFAEVLKSGSTTQASVMLALSQSAVSAALTDLEGQLGVQLFDRVGKRLVVNEHGRLLYPRALALLEQAVEIEQLFREDNGAIRIYASSTIGNYILPAVIARYRHDYPQLPIELSVGNSQDVMQAVLDFRVDIGFIEGPCHSTEIISEPWLEDELVVFAAPTSPLARGPVTLEQLAAAPWILRERGSGTRDIVDYLLLSHLPKFEMAMELGNSEAIKHAVRHGLGISCLSRRVIEDQLQAGTLSEVAVPLPRLMRTLWRIHHRQKHLSNALRRFLDYCDPANVPR”, the “soluble on expression in E. coli” value is “not soluble”.

In the case of “SLENYWVDERTLVVSGDFFGVSTGLLGGWKRVRHAFNHTVSEEFHSMEPAEYLRKVARGYGLKSYFGLLTSVPIEKLSVKGCGEVTVFATAGVMNPNERVGTINIIAVFECRMSRAAMLNAIITATEAKTKALLEEGHNFTGTNTDAVVVLCTQKGGYHRYCGPASEVGQKLWRCAGEAVKDSLARW”, the “soluble on expression in E. coli” value is “soluble”.

Take “MAMPTIRHVRAFIVRGGGADYHDQPGGHWIDDHISTPMARYPEYRQSRQSFGINVLGTLVVEIEASDGTVGFAVTTGGEIGAFIVEKHLARFLEGQLVTDIEKMWDQMYFSTLYYGRKGVVLNTISGVDLALWDLLAKVRKEPVYQLLGGPVRDELVFYATGARPDLAKEMGFIGGKLPLQHGPAEGDAGLRQNLDKLAEMRSRVGDDFWLMYDCWMSLDVPYATRLAQAAHEYGLKWIEECLPPDDYWGYAELRRNVPRGMMVSTGEHEATRWGFRMLLEMQCCDLIQPDVGWCGGITELIKISALADAHNVMVVPHGSSVYSYHFVVTRHNSPFAEFLMMAPKADEVVPMFTPLLLDEPVPVNGRMKVPDAPGFGVRLNPECALVRPYAR”: the “soluble on expression in E. coli” value was “soluble”.

On to “MRRNIRVTLGAATIVAALGLSGCSHPEFKRSSPPAPSLPPVTSSPLEAAPITPLPAPEALIDVLSRLADPAVPGTNKVQLIEGATPENAAALDRFTTALRDGSYLPMTFAANDIAWSDNKPSDVMATVVVTTAHPDNREFTFPMEFVSFKGGWQLSRQTAEMLLAMGNSPDSTPSATSPAPAPSPTPPG”, for which the “soluble on expression in E. coli” value was “soluble”.

Regarding “MSLYRHIPLVALSLFSSLFLAACGNGTPPPAAARPAIVVQPQPAGEVSQAFPGEIRARHEPELAFRIGGKVIRRLVEVGERVKKDQPLAELDPQDVRLQLEAARAQVSAAEANLQTVRAEYRRYRTLLDRNLVSHSQFENIQNSYRAGEARLKQIRAEFNVADNQAGYAVLRSPQDGVIASRRVEVGQVVAAGQTVFSLAADGEREVLIGLPEHSFERFRIGQPVSVELWSQRDRRFAGHIRELSPAADPQSRTFAARVAFDDRATPAELGQSARVYVAAAEAVPLSVPLSALTAEAGQAFVWVVEPGSSTLRRQPVRTGPYAEDRVPVLEGLKAGDWVVATGVQVLREGQQVRPIDRANRTVKLAAKEEGHHHHHH”, the “soluble on expression in E. coli” value is listed as “soluble”.

“MTTCFCTGARSGPTVAISADLHQALRGIVAQRMATDPAHDLAHLDRVWVNVQAIASPGADRDVLLAASYLHDLVNLPKNAPDRHTASRRSADEAAPILRDLGFDEAQIAATGHAIAAHSFSAGISPESEEARILRDADRLDALGAIGIARNFSVSGSLGRALYDPADPFCERRTPDDALYSLDHWRVKLLSLPQGMLTDKGRALAEARIALMLRFLDDFAAEIGTPLPEGWTRGLEHHHHHH”: the “soluble on expression in E. coli” value is recorded as “soluble”.

Take “MNSNRTPSQKVLARQEKIKAVALELFLTKGYQETSLSDIIKLSGGSYSNIYDGFKSKEGLFFEILDDICKKHFHLIYSKTQEIKNGTLKEILTSFGLAFIEIFNQPEAVAFGKIIYSQVYDKDRHLANWIENNQQNFSYNILMGFFKQQNNSYMKKNAEKLAVLFCTMLKEPYHHLNVLINAPLKNKKEQKEHVEFVVNVFLNGINSSKA”: the “soluble on expression in E. coli” value was “soluble”.

“MSLGSNKTIIINLNNLEHNLNLIKNKIGEKEIVATLKGDAYGHGLINIFKFLKSKNINYFGLSNIEDAKTLKKIDKNIKILMYIKVDKKEIKNLIKFELVPFVSDFEYLFLIEKECALQKNKIKVHLKIDIGMNRYGIKIDDALEIATYIQNSKFLELEGICSHLPSIENFKTTQKQIEQFLFFLETLKQKNIHPKFVHISNSGHIINYKLNPQFNMVRPGLILYGYCQSLKNKKPALNFKPVLSLFSKVIFIKNVKKGEKISYSGIFQAKEDMKIGIIPIGYFDGIPQNISNDFYFLINNKKCKIRGKVCMNLTIVEIPKDLKVKTGSKVEIVSEKLSIDEMSKFSKRSHYELLCNIGKYEKRKYLDEGHHHITTDPNSSSVDKLAAALEHHHHHH”: the “soluble on expression in E. coli” value is “soluble”.

With “MSRESTVREWRTRVPRYRLLGGRCSDCGRSFYPPAKACPYCGSRNVAETELPRVGRLEAYTVLYSVESGARDRSPVVIGLVDLGVAKVVSEIVDVSDPESLERGVQVEAVFRRIYEDGDEGVIVYGVKFRPKA”, the “soluble on expression in E. coli” value was “not soluble”.

Take “MHHHHHHSSMDDPIGLFVMRPQDGEVTVGGSITFSARVAGASLLKPPVVKWFKGKWVDLSSKVGQHLQLHDSYDRASKVYLFELHITDAQPAFTGGYRCEVSTKDKFDCSNFNLTVHEAM”: the “soluble on expression in E. coli” value is recorded as “soluble”.

Regarding “MNKFVKSLLVAGSVAALAACSSSNNDAAGNGAAQTFGGYSVADLQQRYNTVYFGFDKYDITGEYVQILDAHAAYLNATPAAKVLVEGNTDERGTPEYNIALGQRRADAVKGYLAGKGVDAGKLGTVSYGEEKPAVLGHDEAAYSKNRRAVLAY”, the “soluble on expression in E. coli” value is on record as “soluble”.

As to “SLQETTAQEQKVGNYALGPEGLKKALAETGSHILVMDLYAKTMIKQPNVNLSNINLGSEGGELLKNIHLNQELSRINANYWLDTAKPQIQKTARNIVNYDEQFQNYYDTLVETVQKKDKAGLKEGINDLITTINTNSKEVTDVIKMLQDFKGKLYQNSTDFKNNVGGPDGKGGLTAILAGQQATIPQLQAEIEQLRATQKKHFDDVLAWSIG”, the “soluble on expression in E. coli” value is “soluble”.

Take “MSLVYLNSNFLYGDDFEPKKGTLVIEDEIIKGFTSEHHSNVLNYKGLVIPPLINSHTHIGDNSIKDIGIGKSLDELVKPPNGLKHKFLNTCSEKELVQGMSEGLYDLENNGIKAFCDFRENGLNGINSLKSAFEDSNVSIKPIILGRPTQREENLLKDEISIILDNCDGLGLSGSNEYSDQELKFICKLVNKKILSIHANEHKGSVQYSKEKYGISEIERLINLNIKPDFLIHATHSSSDDLSLLNENKIPVVVCPRANASFNVGLPDIPKMLEYNLKLGIGTDNFMANSPSIFKEMDFIYKIYHVDPKEILKMATINGAEILGLQNTGVIKEGYIPTFTFIKNGNILKTSKNIAASVVTRLENGDVDSKFLVCEGHHHHHH”: the “soluble on expression in E. coli” value is reported as “not soluble”.

“GPGSMLVDRLQLSCEGTTTAGFTPLLEQFDKGTATQERGAEERAEGNLTPLRVYFRNKRHSLWGHRLWNAAKYMVKRMDSRMIDVRGKTVLELGAGLGVPSLAAFRNGARCVVATDYPDGDLLEILEMNVKANCRADLIDADAAAFLLQEAERLKLAQGYEKSGETVFSEAERQRALSTRCVVEPLLWGKQEHIQKVMSYTGGGGFDIVLLSDILFNHVCNDDLADTIVRVLQRSQHAAAYCVFSHHRAHKQVEDLEFFDKCVARGLRFEQVDEENYPMMFPDDSGPAEIRQPVKTYKIVHYFDDAGMAFQPGNDVFDVVIQGTGMVESIVSAALARSGIRVLHCDGEDDYGGAFKTMTVERMREYITGPLPASLDGAADNRDGRGDHEENHPRCNDGVIAVDRMDELKLHERRSFLLDLLPTHNLSNGETVRQLITSDMARHME”: the “soluble on expression in E. coli” value is reported as “not soluble”.

Turning to “MGSDKIHHHHHHMQSKIAEAIKLGNQPVAVMRSDAKPEGAMQFKEGRWGCAISLLNMAAKGQVAVFANSTTTCSGGKVGLGFRQFELGFIEHFLSVGGVGGREGEFYKKNPELAGKFALELPKVTAKEYIIFKPLSELKADETPEGIIFLANADQISALTVLANYDRPTQDNVKVNFGAGCHQTVLFTLDQVDKDEDHCFIGLTDPSARKFIDKDILSFSMTYKRFLELEEQVEESFLTKETWLKVAERI”, the “soluble on expression in E. coli” value was “not soluble”.

As to “MGSDKIHHHHHHMQIDQIETFLDLLETQSFNRTADRLDVTQSTVSGRVKALEKALGERLFERSRSGTQPTTAALRFETHARVLRRAWADGQADVKPFGTAVMLRIGIQHDLIDNHVADWLAALRQALPECGFYVDGDYSTQMCRDLETGALDLGVVFTPRPSPDLYFESMGEVTYQMVSTAQTSLPQIDPTNYILPNYAPAFAQTHAALLPGLSLGSVSSGQAAAVRGLLIALGGTTYLPTEMVSALITEGIAHHVPGAPDITQPVFVAMHLRNRHRAGYRRMANVLRDRVGT”, the “soluble on expression in E. coli” value was “not soluble”.

“MGSDKIHHHHHHMIDAFVRIGPLMDPASYPQWAQQLIEDCRESKRRVVEHEFYARLRDGQLKQSTIRQYLIGGWPVVEQFSLYMAHNLTKTRYGRHQGEDMARRWLMRNIRVELNHADYWVNWCQAHGVHLHELQAQEVPPELNGLNDWCWRVCATENLAISMAATNYAIEGATGEWSAVVCSTDTYAQGFPEEGRKRAMKWLKMHAQYDDAHPWEALEIICTLAGENPTLGLRTELRRAICKSYDCMFLFLERCMQLEGRQQGRMRPALAAG”: the “soluble on expression in E. coli” value was “not soluble”.

As to “MKIIITGEPGVGKTTLVKKIVERLGKRAIGFWTEEVRDPETKKRTGFRIITTEGKKKIFSSKFFTSKKLVGSYGVNVQYFEELAIPILERAYREAKKDRRKVIIIDEIGKMELFSKKFRDLVRQIMHDPNVNVVATIPIRDVHPLVKEIRRLPGAVLIELTPENRDVILEDILSLLER”, the “soluble on expression in E. coli” value is recorded as “soluble”.

For the sequence “MASGTASTKIVIAGGFGSGKTTFVGAVSEIMPLRTEAMVTDASAGVDMLEATPDKRSTTVAMDFGRITLGEDLVLYLFGTPGQRRFWFMWDDLVRGAIGAIVLVDCRRLQDSFAAVDFFEHRNLPFLIAINEFDSAPRYPVSAVRDALTLPAHIPVINVDARNRRSATDALIAVSEYALATLSPLEHHHHHH”, the “soluble on expression in E. coli” value is reported as “not soluble”.

With “MRGSHHHHHHGMASMSVSTASTEMSVRKIAAHMKSNPNAKVIFMVGAGISTSCGIPDFRSPGTGLYHNLARLKLPYPEAVFDVDFFQSDPLPFYTLAKELYPGNFRPSKFHYLLKLFQDKDVLKRVYTQNIDTLERQAGVKDDLIIEAHGSFAHCHCIGCGKVYPPQVFKSKLAEHPIKDFVKCDVCGELVKPAIVFFGEDLPDSFSETWLNDSEWLREKITTSGKHPQQPLVIVVGTSLAVYPFASLPEEIPRKVKRVLCNLETVGDFKANKRPTDLIVHQYSDEFAEQLVEELGWQEDFEKILTAQ”, the “soluble on expression in E. coli” value was “soluble”.

Consider “MAGWNLEPEYTSLARDFGSLDAVFALQGQQLTRDPLSDVIRVERAGVYYFVKRYVGAGKGLRRYMGKPRVKSEWQNLKRFAKWGIPTAEVVAWGLERNGAAYDRGALITRGLPNTEDLSALAQRKDPRLADRQWVDGISRQLAAYTRIMHDNHFTHNDLKWRNLLVDNEDRLFFIDCPNGAFWWSFMLRYRITKDLACLDKVAKYHLSATQRLRFYLQYRQRARLNAADKKRIRHIVSFFEGRE”, for which the “soluble on expression in E. coli” value is reported as “not soluble”.

As to “GMFASLVIPVSAQANSGEMPQEQQLAVKYMDALTEHDYKTLITFYNRDSIFFDKTANRKYTGGRFIIDFLERAHQGVLEYDFNIEHMYNAGSLVVMIGNYHFKGPGEQFGKPGKIIDVAIPAVTSLKLDMLNRRVTEHVDLIDYQTMSDQLAMQ”, the “soluble on expression in E. coli” value is reported as “soluble”.

On to “GQVQLVESGPGLVAPSQSLSITCTVSGISLSRYNVHWVRQSPGKGLEWLGMIWGGGSIEYNPALKSRLSISKDNSKSQIFLKMNSLQTDDSAMYYCVSYGYGGDRFSYWGQGTLVTVS”, for which the “soluble on expression in E. coli” value was “soluble”.

Consider “DAAPAPAAEAAPAAAPAPAAAAELKEVHVPDIGGDEVEVTEIMVAIGDSIEEEQSLITVEGDKASMEVPAPFAGTLKEIKVAAGDKVSTGSLIMVFETAGSGAPAAPAAVEAPAAAAPAASAA”, for which the “soluble on expression in E. coli” value is on record as “not soluble”.

(Values after the DeepSol protein solubility set.)
